Source: PMC12098869, “An mRNA-display derived cyclic peptide scaffold reveals the substrate binding interactions of an N-terminal cysteine oxidase” (Nature Communications, 2025)
Positions count from the first letter of the chain named. Values joined by “and” are separate entries in the source; they are usually repeats but may differ in a detail not shown here. Identical values can stand only once. One block for each binder: values may come before it.

Legend:
Experiment in all cases: SPR; biotinylated ADO or ADO mutant immobilised on a Biotin CAP chip (~2500-3000 RU), substrate peptide injected; Biacore T200, 4 °C; 20 mM HEPES pH 7.5, 500 mM NaCl, 10 mM DTT, 0.1% tween-20; 50 µL/minute; multi-cycle or single-cycle mode not given; each cell is one of three independent measurements
Conditions in all cases: both partners purified
[1] = biological target: T1, ADO-I109A, N-terminally His-tagged and biotinylated (human, UniProt Q96SZ5 1-270, I109A, biotin (biotinylated during expression))
T1 construct: 2-aminoethanethiol dioxygenase (ADO), human, UniProt Q96SZ5, full length, site-directed mutant; source: E. coli Rosetta2(DE3), purified (Ni-NTA, SEC); not shown: biotinylation tag (from the vector pQE80L-Navi), N-terminal, kept
T1 sequence (looked up): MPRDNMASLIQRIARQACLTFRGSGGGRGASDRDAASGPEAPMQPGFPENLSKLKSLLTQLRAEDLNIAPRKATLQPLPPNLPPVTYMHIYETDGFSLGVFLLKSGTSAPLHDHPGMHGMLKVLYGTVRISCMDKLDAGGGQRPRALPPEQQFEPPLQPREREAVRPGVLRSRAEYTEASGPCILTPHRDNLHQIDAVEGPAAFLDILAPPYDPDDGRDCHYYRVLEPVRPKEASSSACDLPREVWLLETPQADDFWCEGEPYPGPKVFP

[2] = biological target: T2, ADO-Y212A, N-terminally His-tagged and biotinylated (human, UniProt Q96SZ5 1-270, Y212A, biotin (biotinylated during expression))
T2 construct: 2-aminoethanethiol dioxygenase (ADO), human, UniProt Q96SZ5, full length, site-directed mutant; source: E. coli Rosetta2(DE3), purified (Ni-NTA, SEC); not shown: biotinylation tag (from the vector pQE80L-Navi), N-terminal, kept
T2 sequence (looked up): T1 sequence (looked up) with A109I, Y212A

[3] = biological target: T3, ADO-F101A, N-terminally His-tagged and biotinylated (human, UniProt Q96SZ5 1-270, F101A, biotin (biotinylated during expression))
T3 construct: 2-aminoethanethiol dioxygenase (ADO), human, UniProt Q96SZ5, full length, site-directed mutant; source: E. coli Rosetta2(DE3), purified (Ni-NTA, SEC); not shown: biotinylation tag (from the vector pQE80L-Navi), N-terminal, kept
T3 sequence (looked up): T1 sequence (looked up) with F101A, A109I

[4] = biological target: T4, ADO-Y222A, N-terminally His-tagged and biotinylated (human, UniProt Q96SZ5 1-270, Y222A, biotin (biotinylated during expression))
T4 construct: 2-aminoethanethiol dioxygenase (ADO), human, UniProt Q96SZ5, full length, site-directed mutant; source: E. coli Rosetta2(DE3), purified (Ni-NTA, SEC); not shown: biotinylation tag (from the vector pQE80L-Navi), N-terminal, kept
T4 sequence (looked up): T1 sequence (looked up) with A109I, Y222A

[5] = biological target: T1, ADO-I109A, N-terminally His-tagged and …; remark: listed apart in the source
[6] = biological target: T5, ADO-C220A, N-terminally His-tagged and biotinylated (human, UniProt Q96SZ5 1-270, C220A, biotin (biotinylated during expression))
T5 construct: 2-aminoethanethiol dioxygenase (ADO), human, UniProt Q96SZ5, full length, site-directed mutant; source: E. coli Rosetta2(DE3), purified (Ni-NTA, SEC); not shown: biotinylation tag (from the vector pQE80L-Navi), N-terminal, kept
T5 sequence (looked up): T1 sequence (looked up) with A109I, C220A

- Kd [1]: 1120 nM and 1240 nM and 1430 nM
B1: RGS5(2-15), synthetic peptide corresponding to the methionine excised N-terminus of RGS5, residues 2 to 15 (peptide, UniProt O15539 2-15, looked up)
peptide: CKGLAALPHSCLER
notes: regulator of G-protein signalling 5 (RGS5), residues 2 to 15 (N-terminal Cys exposed); UniProt O15539 is printed for the full-length human protein; also called 14-mer RGS5; source: synthetic peptide

- Kd [2]: 34000 nM and 24700 nM
- Kd [3]: 37900 nM and 35000 nM and 37600 nM
- Kd [4]: 921 nM and 1040 nM and 1100 nM
- Kd [5]: 14200 nM and 15100 nM and 18400 nM
- Kd [6]: 1440 nM and 1180 nM and 1430 nM
B2: IL32(2-15), synthetic peptide corresponding to the methionine excised N-terminus of IL32, residues 2-15 (peptide, UniProt P24001 2-15, looked up)
peptide: CFPKVLSDDMKKLK
notes: interleukin 32 (IL32), residues 2-15 (N-terminal Cys exposed); also called 14-mer IL32; source: synthetic peptide
